Data on two substances can be found in article PMC6509256.

The stoichiometry N is a count of units in the complex or per binding partner.

Assay [1] concerns the target PcVps75ΔCM-SeMet (residues 1-223, E56 and N127 mutated to methionine, selenomethionine-labeled), cry (Pneumocystis carinii). Briefly: crystal structure.
For assay [2], the target named is PcVps75ΔC (residues 1-223), crystallised as a dimer (Pneumocystis carinii). In words: crystal structure.

Regarding “PcVps75ΔCM-SeMet (residues 1-223, E56 and N127 mutated to methionine, selenomethionine-labeled), cry (domain or fragment)”, the stoichiometry N in assay [1] is 4.
Consider “PcVps75ΔC (residues 1-223), crystallised as a dimer (domain or fragment)”, for which the stoichiometry N in assay [2] was determined as 2.
